Data: patent US20160046957A1

Target: human coagulation Factor X (human) (UniProt P00742)
Assay: cell-based or functional assay

Sequence of UniProt P00742 (P00742 41-488): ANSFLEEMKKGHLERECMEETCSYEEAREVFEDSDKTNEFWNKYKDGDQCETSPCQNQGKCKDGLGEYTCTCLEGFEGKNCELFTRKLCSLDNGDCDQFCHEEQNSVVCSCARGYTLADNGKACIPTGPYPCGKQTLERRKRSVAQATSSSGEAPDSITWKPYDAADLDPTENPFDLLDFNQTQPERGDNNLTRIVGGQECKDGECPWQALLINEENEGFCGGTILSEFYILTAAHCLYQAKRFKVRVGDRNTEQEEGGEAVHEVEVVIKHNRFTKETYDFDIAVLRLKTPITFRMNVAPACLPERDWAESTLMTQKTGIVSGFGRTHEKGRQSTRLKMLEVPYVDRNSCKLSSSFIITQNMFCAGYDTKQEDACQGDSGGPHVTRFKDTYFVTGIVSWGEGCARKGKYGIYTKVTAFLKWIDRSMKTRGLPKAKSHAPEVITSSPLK

estimated furin concentration in the cell culture medium resulting in equal or higher 90% fully processed FX of total FX (Emax model on Western blot densitometry and furin activity assay): > 57 U/mL
Substance: human furin (from UniProt P09958 108-794) (enzyme)
